The values below come from PMC11302882, “tRF-27 competitively Binds to G3BPs and Activates MTORC1 to Enhance HER2 Positive Breast Cancer Trastuzumab Tolerance”.

Data set [1] concerns the target T1, HA-G3BP2 lacking NTF2 domain (UniProt Q9UN86 1-10+134-482, internal_change).
T1 sequence: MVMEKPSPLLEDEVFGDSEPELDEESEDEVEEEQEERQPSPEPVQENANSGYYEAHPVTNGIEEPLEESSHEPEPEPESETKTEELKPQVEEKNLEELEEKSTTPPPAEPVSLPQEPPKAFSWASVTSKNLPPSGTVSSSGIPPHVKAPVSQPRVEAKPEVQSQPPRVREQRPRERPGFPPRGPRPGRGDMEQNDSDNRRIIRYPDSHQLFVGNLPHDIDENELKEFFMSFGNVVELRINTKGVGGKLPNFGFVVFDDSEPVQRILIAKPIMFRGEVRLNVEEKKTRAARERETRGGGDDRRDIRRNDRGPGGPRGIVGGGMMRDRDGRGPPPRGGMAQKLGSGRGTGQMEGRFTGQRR
The experiment in a line: EMSA; not stated; BeyoMag Chemiluminescent RNA EMSA Kit per manufacturer; biotin-RNA pull-down from cell lysates. Particulars: protein: recombinant; tags: N-terminal HA; label: biotin; predicted loop.

In data set [2] the target is T2, HA-G3BP2 full length (UniProt Q9UN86 1-482).
T2 sequence: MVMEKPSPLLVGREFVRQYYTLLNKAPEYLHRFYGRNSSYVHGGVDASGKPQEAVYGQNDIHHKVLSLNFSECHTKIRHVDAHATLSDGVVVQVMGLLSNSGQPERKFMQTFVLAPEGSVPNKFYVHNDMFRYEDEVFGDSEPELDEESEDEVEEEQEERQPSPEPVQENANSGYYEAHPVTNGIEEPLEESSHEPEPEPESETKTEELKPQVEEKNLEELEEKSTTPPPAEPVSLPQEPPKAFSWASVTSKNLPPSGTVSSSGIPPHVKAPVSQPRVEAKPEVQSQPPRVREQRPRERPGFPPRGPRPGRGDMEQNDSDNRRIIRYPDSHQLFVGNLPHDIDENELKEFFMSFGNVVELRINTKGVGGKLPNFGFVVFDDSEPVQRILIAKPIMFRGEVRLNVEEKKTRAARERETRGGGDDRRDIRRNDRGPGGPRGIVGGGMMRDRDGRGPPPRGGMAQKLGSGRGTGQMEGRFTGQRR
Described as above. Particulars: protein: recombinant; tags: N-terminal HA; chain copies: 2; label: biotin; predicted loop.

For the molecule UUGACUGCAGAUCAAGAGGUCCCCGGU (ssRNA) [tRF-27 (tRF-27-ZDXPHO53KSN)], the binding result in data set [1] is “no binding”; in data set [2], “binds”.
